This data set has as its target cytochrome c (UniProt P62894). The note with it: Cy3 fluorescence quenching, hyperbolic fit; cytochrome c source for this assay not stated.

Chain of cytochrome c (P62894 2-105): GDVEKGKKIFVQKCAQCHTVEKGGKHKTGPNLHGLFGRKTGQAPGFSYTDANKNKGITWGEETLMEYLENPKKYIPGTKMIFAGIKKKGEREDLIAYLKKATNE

tRNACys 5'-Cy3: the Kd was found to be 3.5 µM.

As usually defined, the Kd is the equilibrium constant for the complex coming apart.

Values taken from patent US20120252718.
